The results in this text go back to PMC11995267.

Where a chain is given by its changes, count along the chain named. Numbers in names are those of the source.

The experiment has as its target T1, GST-tagged first WD40 domain of Elp1, Q06706.
T1 chain: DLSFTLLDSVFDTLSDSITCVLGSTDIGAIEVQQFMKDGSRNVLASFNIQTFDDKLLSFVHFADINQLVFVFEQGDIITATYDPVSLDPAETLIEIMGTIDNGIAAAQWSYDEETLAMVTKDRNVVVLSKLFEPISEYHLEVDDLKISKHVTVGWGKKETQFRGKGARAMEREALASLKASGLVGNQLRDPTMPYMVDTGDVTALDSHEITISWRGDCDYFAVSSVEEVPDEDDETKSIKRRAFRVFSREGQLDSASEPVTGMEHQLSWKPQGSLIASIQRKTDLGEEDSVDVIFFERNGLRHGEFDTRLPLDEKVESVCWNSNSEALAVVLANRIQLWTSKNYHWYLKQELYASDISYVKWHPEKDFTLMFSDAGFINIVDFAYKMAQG
The experiment is described as follows: GST pull-down, quantified from Coomassie SDS-PAGE. Particulars: chain shown with the change;; parent: est. 1.0; read off a plot.

B1: recombinant Kti12 (wild type), His-tagged, P34253 K225A; K228A; K235A; R281A; K283A; R284A; K291A (protein)
chain: MPLVLFTGYPCSGKTTLAKHLVQLLQSKIDATPSLSKYSITYHSDESLGIKHSDYITSQDERKLRSEIISAVKRDLSKNKIVIVDSLNYIKGFRYQLHCEVKNLSTTFCVIQTLCPPETIFEWNKTSNPNPWEPELLNQLIQRYEEPNSSNRWDSPLFAILTPQDNITDYIDDICKVVFQTSKSAKNSGHNDPLSKGLQKPNSATVLKPASQSNFIQVLDIETSAIIATIMNHIASLTSIGGVSNGTRVIVSEGITDINDDGCFFVDLPIGNVVTLAQLQALAAQFINFNALRDIDQDRIGPLFADYLNKNLN
With B1, the ratio to parent came out at 0.11.

B2: recombinant Kti12 (wild type), His-tagged, P34253 K225A; K228A; K235A (protein)
chain: B1 chain with A281R, A283K, A284R, A291K
On to B2, for which the ratio to parent came to 0.67.
